Measured values as given in patent publication US7994133B2, “Isozyme-specific antagonists of protein kinase C” (The Board of Trustees of the Leland Stanford Junior …, priority 2003, dated 2011).
Changes are numbered by the printed parent chain.

Experiments:
[1] = system: CHO and MCF-7 cells; test: PKC translocation by Western blot, soluble to particulate fraction, after PMA; format: cell-based; conditions: 10 minutes PMA, 100 nM in CHO, 10 nM in MCF-7
Method: To assess PKC distribution the different cell fractions were run on SDS PAGE, transferred for Western blot analysis and probed with anti-εPKC V5 antibodies. Lysates of overexpressed GFP-εPKC were diluted to approximately 0.2 μg/well. At this concentration endogenous εPKC was not detected. All other methods for this Example were performed as described, for example, in Example 4. It was also confirmed that the Wt and ΨεRACK εPKC mutants were sensitive to activation by phorbol ester and that they translocated from the soluble to the particulate fraction of the cell upon activation. Translocation of the εPKC mutants was determined using two different cell lines, MCF-7 and CHO. [CHO cells were stimulated for 10 minutes with 100 nM PMA (FIG. 6C). MCF-7 cells were stimulated with 10 nM PMA for 10 minutes (FIG. 6D, 6E), since stimulation of MCF-7 cells with higher doses of PMA caused a detachment of the cells]. After treatment with PMA, cells were fractionated into soluble and particulate fractions, and GFP-εPKC was detected and quantified by Western blot analysis using anti-εPKC. […] This is not due to PKC degradation; the total amount of εPKC was not changed upon activation. Therefore, GFP-εPKC ΨεRACK mutants were catalytically active and responded to activation by PMA by translocating from the soluble to the particulate fraction of the cell.

[2] = target: T1, GST-εRACK (Homo sapiens, UniProt P35606); test: εRACK binding assay; conditions: for change of binding to εRACK in the presence of PL: with versus without phosphatidylserine and Sn-1,2 dioleoylglycerol
T1 construct: made in house; host or cells: Hi5 insect cells (baculovirus made in Sf9)
T1 sequence (P35606 2-906 limits assumed): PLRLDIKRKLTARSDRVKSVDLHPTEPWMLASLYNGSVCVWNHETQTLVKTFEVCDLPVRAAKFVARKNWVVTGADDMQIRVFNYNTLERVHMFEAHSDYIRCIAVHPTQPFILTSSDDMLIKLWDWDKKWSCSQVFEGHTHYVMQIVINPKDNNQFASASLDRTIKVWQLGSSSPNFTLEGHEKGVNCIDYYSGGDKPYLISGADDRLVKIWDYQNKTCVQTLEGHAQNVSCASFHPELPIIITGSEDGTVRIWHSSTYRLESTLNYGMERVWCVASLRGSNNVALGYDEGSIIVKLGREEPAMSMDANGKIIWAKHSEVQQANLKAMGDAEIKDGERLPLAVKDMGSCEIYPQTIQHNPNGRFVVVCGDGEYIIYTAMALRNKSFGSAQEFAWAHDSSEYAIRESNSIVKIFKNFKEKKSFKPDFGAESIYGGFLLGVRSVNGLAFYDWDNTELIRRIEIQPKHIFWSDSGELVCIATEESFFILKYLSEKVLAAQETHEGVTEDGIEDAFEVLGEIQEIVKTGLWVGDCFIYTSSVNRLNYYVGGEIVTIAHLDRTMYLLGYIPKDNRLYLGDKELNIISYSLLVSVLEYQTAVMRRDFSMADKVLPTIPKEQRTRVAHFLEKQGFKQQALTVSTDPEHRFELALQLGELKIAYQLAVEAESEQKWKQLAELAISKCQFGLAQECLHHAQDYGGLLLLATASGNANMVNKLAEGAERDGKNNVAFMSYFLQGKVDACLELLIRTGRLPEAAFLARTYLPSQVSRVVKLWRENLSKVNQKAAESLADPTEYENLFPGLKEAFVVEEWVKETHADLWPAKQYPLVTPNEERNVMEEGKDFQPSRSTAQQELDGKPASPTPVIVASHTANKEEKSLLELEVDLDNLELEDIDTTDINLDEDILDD
Method: RACKs bind active PKC [Mochly-Rosen, D. & Gordon, A. S., FASEB J. 12:35-42 (1998); Mochly-Rosen, D. et al., Molec. Biol. Cell. (formerly Cell Regulation) 1:693-706 (1990).
Insect cells expressing either εPKC or GST-εRACK were lysed as described in Example 4. GST-εRACK, […] was immobilized on Glutathion-Sepharose 4B beads (Amersham-Pharmacia), and washed thoroughly with wash buffer (20 mM Tris-HCl pH 7.5, 2 mM EDTA, 100 mM NaCl, 12 mM βME, and 0.1% TritonX-100). Immobilized GST-εRACK was then incubated with the soluble fraction of insect cell lysates containing 100 ng Wt, D(86)A, or D(86)N εPKC protein, in the presence or absence of phospholipid activators (PL) (phosphatidylserine 12 μg/reaction and, Sn-1,2 dioleoylglycerol 400 ng/reaction) for 1 hour at 4° C. Upon thorough washing with wash buffer, bound proteins were eluted in SDS-PAGE sample buffer and proteins separated on 8% SDS-PAGE gels. The amount of εPKC interacting with εRACK was determined by Western blot probing for εPKC with anti εPKC-V5 antibodies. Blots were then re-probed with ant-GST (Santa Cruz) to verify that the same amount of GST-εRACK was present in each binding assay. All other methods for this Example were performed as described, for example, in Example 4.

B1: D(86)A: εPKC mutant wherein D at position 86 of ΨεRACK on εPKC is substituted with an A (protein)
chain: MVVFNGLLKIKICEAVSLKPTAWSLRHAVGPRPATFLLDPYIALNVDDSRIGQTATKQKTNSPAWHDEFVTDVCNGRKIELAVFHAAPIGYDDFVANCTIQFEELLQNGSRHFEDWIDLEPEGRVYVIIDLSGSSGEAPKDNEERVFRERMRPRKRQGAVRRRVHQVNGHKFMATYLRQPTYCSHCRDFIWGVIGKQGYQCQVCTCVVHKRCHELIITKCAGLKKQETPDQVGSQRFSVNMPHKFGIHNYKVPTFCDHCGSLLWGLLRQGLQCKVCKMNVHRRCETNVAPNCGVDARGIAKVLADLGVTPDKITNSGQRRKKLIAGAESPQPASGGSPSEEDRSKSAPTSPCDQEIKELENNIRKALSFDNRGEEHRAASSPDGQLMSPGENGEVRQGQAKRLGLDEFNFIKVLGKGSFGKVMLAELKGKDEVYAVKVLKKDVILQDDDVDCTMTEKRILALARKHPYLTQLYCCFQTKDRLFFVMEYVNGGDLMFQIQRSRKFDEPRSRFYAAEVTSALMFLHQHGVIYRDLKLDNILLDAEGHCKLADFGMCKEGILNGVTTTTFCGTPDYIAPEILQELEYGPSVDWWALGVLMYEMMAGQPPFEADNEDDLFESILHDDVLYPVWLSKEAVSILKAFMTKNPHKRLGCVASQNGEDAIKQHPFFKEIDWVLLEQKKIKPPFKPRIKTKRDVNNFDQDFTREEPVLTLVDEAIVKQINQEEFKGFSYFGEDLMP
increase of εPKC in the particulate fraction compared with D(86)N or Wt [1]: greater increase
binding to εRACK relative to D(86)N or Wt ([2]; absence of PL activators): at least two fold greater
change of binding to εRACK in the presence of PL [2]: not increased

B2: Wt: wild type εPKC, human construct (protein)
chain: B1 chain with A86D
change of binding to εRACK in the presence of PL [2]: significantly increased

B3: D(86)N: εPKC mutant wherein D at position 86 of ΨεRACK in εPKC is substituted with an N (protein)
chain: B1 chain with A86N
εRACK binding compared with D(86)A or Wt ([2]; presence of an equal concentration of PL): less εRACK binding
change of binding to εRACK in the presence of PL [2]: significantly increased
